The values that follow come from article PMC9263355.

pKd: −log10 of the molar value.

For assay [1], the target named is 4-1BB on CD3/CD28-activated human CD4 T cells (human (endogenous in CD4 T cells)) (UniProt Q07011).
Assay [2] deals with recombinant human galectin-9C (human). Description: fluorescence polarisation; fluorescence anisotropy in solution, by inhibition: fixed galectin (0.2-2.5 µM) with 0.02 µM of its fluorescent probe, in the presence of 0.07-[…] (rh)4-1BB Fc or (rh)IgG1 Fc; average Kd from the points with ≥ 15% inhibition. Background: In fluorescence polarisation assays a small probe gives low polarisation when free and higher when bound to something large.

For assay [3], the target named is recombinant human galectin-8N (human). The assay is described as above.
The target of assay [4] is recombinant human galectin-9N (human). Described as above.

Chain of recombinant human (rh)4-1BB Fc chimera protein (Q07011 24-186, change not shown): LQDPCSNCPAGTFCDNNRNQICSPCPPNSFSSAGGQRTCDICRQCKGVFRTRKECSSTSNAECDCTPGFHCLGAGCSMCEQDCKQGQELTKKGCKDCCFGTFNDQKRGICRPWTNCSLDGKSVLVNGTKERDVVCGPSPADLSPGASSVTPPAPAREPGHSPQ
Chain of Gal-3 in normal human plasma (P17931 whole entry): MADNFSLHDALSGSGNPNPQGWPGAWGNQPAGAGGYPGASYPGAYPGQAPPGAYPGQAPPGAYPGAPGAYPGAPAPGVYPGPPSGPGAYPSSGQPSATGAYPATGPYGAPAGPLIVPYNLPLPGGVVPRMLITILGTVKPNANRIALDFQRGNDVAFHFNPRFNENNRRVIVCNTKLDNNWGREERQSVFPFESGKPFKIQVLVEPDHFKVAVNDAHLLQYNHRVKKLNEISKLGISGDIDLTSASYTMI
Chain of 4-1BB on CD3/CD28-activated human CD4 T cells (human (endogenous in CD4 T cells)) (Q07011 24-255): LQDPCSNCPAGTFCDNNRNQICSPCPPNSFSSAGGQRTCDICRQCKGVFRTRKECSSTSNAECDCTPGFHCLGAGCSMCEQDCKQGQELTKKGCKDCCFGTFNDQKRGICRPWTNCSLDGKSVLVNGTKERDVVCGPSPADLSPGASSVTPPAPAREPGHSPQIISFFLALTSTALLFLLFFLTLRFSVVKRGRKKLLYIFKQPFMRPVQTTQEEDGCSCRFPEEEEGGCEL

As for “Gal-3 in normal human plasma (from UniProt P17931 1-250) (natural protein)”, the fold decrease in fraction of 4-1BB+CD4+ T cells that produced TNFα upon 4-1BBL stimulation, after pre-incubation of activated CD4 T-cells with plasma in assay [1] was found to be 3.8 fold.

As usually defined, the pKd is −log10 of the Kd, conventionally taken in molar units. In the case of “recombinant human (rh)4-1BB Fc chimera protein (from UniProt Q07011 24-186) (Fc fusion)”, the pKd in assay [2] is 5.65; in assay [3], 5.44; in assay [4] it was 5.86.
